{
  "source": "patent US20060188874A1",
  "about": "“Methods and compositions for colorimetrically assessing peptide characteristics” (priority 2004, published 2006)",
  "format_in_all_cases": "physicochemical",
  "key": {"[1]": {"test": "Molar mass by MALS light scattering (apparent MW as measure of aggregation)", "settings": "solution sample taken during acid addition at pH 9.3, re-work of Sample A", "text": "Molecular weight analysis is also a useful technique to assess beta sheet structure in a peptide. Depending upon the technique and equipment used, the molecular weight may be the weight average molecular weight, number average molecular weight, actual molecular weight, or average molecular weight. Assessment of average molecular weight or weight average molecular weight are preferred. A peptide formed from a known sequence and number of amino acids generally has a theoretical molecular weight that is known with a fair degree of certainty. The theoretical molecular weight can be calculated from the theoretical peptide structure. The molecular weight of a peptide sample can be determined through any suitable technique such as light scattering analysis. However, the amount of beta sheet structure of a sample impacts its measured molecular weight. Generally, the measured molecular weight tends to be higher with increasing amounts of beta sheet structure being present.\nAs an example, the T-1249 peptide has a theoretical molecular weight of about 5000. The measured, apparent molecular weight of actual samples of the peptide may range from 6000 to 100,000 or even more. […]\nSample A was a portion of a highly aggregated batch of T-1249 peptide having an average molecular weight of 98,890±6660. The molar mass was determined using MALS light scattering. […]"}, "[2]": {"test": "Dissolution test of peptide sample (pH raised stepwise until dissolved)", "protocol": "For example, a simple dissolution test can be used to evaluate the solubility characteristics of a peptide sample. The test is conveniently carried out at a temperature in the range of from about 20° C. to about 27° C., preferably about 25° C. From about 0.1 to about 0.3 grams of peptide is combined with about 1 to about 3 ml of an aqueous medium. The medium may be deionized water. In the case of T-20 or T-1249, these peptides are mildly acetic. Consequently, the medium optionally may include some initial amount base, e.g., about 17 mM Na2CO3 or the like, to provide a suitable initial pH. […] The mixture is rapidly stirred for 5 to 10 minutes between additional increments. Solids adhering to the sides of the testing vessel should be re-suspended. Rapid mixing should be maintained throughout. Results include observations regarding the clarity of the mixture, time required for dissolution, concentration and amount of caustic used, final pH upon dissolution (if this occurs below pH 9), and the like.\nFor purposes of the invention, peptides such as T-20, T-1249, and GLP-1, as well as counterparts of these, may be deemed to be in a more desired, deaggregated form if dissolution in accordance with this test occurs at a pH of less than about 8, preferably less than about 7.5. If dissolution occurs at a pH of greater than about 7.5, more preferably greater than about 8, the peptide is deemed to be in a less desired aggregated form. This helps to ensure the practicality of handling the peptide during subsequent processing and handling."}, "[3]": {"test": "Congo Red colorimetric analysis of beta sheet aggregation", "settings": "aggregated T-1249 peptide added to initially orange red solution", "protocol": "The following procedure is used to prepare a Congo Red solution suitable for assessing, qualitatively and/or quantitatively, via colorimetric analysis the solubility and formulating characteristics of a peptide sample. A 50 mM solution of sodium phosphate buffer, pH 7.2 is prepared and filtered through a 0.22 μm Polyethersulfone membrane. 25 μM of Congo Red is dissolved in the sodium phosphate buffer with sonication. The mixture also included about 1% by volume ethanol (This can be 95% ethanol or absolute ethanol.) The solution is orange-colored.\nSonication is used until the peptide is dissolved\nThe peptide/Congo Red solution is incubated at ambient temperature for 3-4 hours.\nAccording to a preferred procedure, a Hewlett Packard 8453 spectrophotometer is used to obtain a blank, reference spectrum of the 50 mM solution of sodium phosphate buffer prepared in Example 6. Using the same instrument, a spectrum for the 25 μM Congo Red solution is measured over a suitable range, e.g., from about 300 nm to about 650 nm. […] If this difference is greater than an empirically determined quality control specification, the sample can be deemed to fail. […]"}, "[4]": {"settings": "precipitated with 18% by volume acetonitrile"}},
  "data": [
    {"substance": "Acetyl-WQEWEQKITALLEQAQIQQE KNEYELQKLDKWASLWEWF-NH2 (Ac-WQEWEQKITALLEQAQIQQEKNEYELQKLDKWASLWEWF-NH2) [Sample T-1249, ID NO; 20]", "values": [
      {"measurement": "molar mass by the MALS method", "setting": "[1]", "result": 6500},
      {"measurement": "dissolution behaviour", "setting": "[2]; precipitated with 14% by volume acetonitrile", "result": "dissolved to some degree at a pH of 6.95 but not completely"},
      {"measurement": "dissolution time", "setting": "[2]; [4]", "result": 1, "unit": "h"},
      {"measurement": "final pH at dissolution", "setting": "[2]; [4]", "result": 6.69},
      {"measurement": "turbidity appearance at dissolution", "setting": "[2]; [4]", "result": "very faint turbidity"},
      {"measurement": "dissolution pH", "setting": "[2]; precipitated with 20 to 22 volume percent acetonitrile", "result": "around 9"},
      {"measurement": "dissolution behaviour", "setting": "[2]; precipitated with no co-solvent, after 14 to 18 hours, pH of 8", "result": "dissolved very slowly with high turbidity"},
      {"measurement": "colour change of Congo Red solution", "setting": "[3]", "result": "deep salmon-pink color"}
    ]}
  ]
}
